Assay results: paper PMC8716928, “Effect of Mutations in GvpJ and GvpM on Gas Vesicle Formation of Halobacterium salinarum” (Frontiers in Microbiology, 2021)

T1: Fragment L133–281 of GvpL, split-GFP fusion (Halobacterium salinarum, UniProt Q9HI27 133-281)
T1 construct: GvpL, p-vac region of Hbt. salinarum PHH1, residues 133–281 (second of two domains); source: Hfx. volcanii transformant, in cells
T1 sequence (looked up): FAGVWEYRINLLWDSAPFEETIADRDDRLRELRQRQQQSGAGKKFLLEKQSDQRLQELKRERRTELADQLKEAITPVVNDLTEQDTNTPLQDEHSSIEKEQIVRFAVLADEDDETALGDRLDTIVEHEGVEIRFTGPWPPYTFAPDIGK

T2: Fragment J47–114 of GvpJ, split-GFP fusion (Halobacterium salinarum, UniProt P24374 47-114)
T2 construct: source: Hfx. volcanii transformant, in cells
T2 sequence (looked up): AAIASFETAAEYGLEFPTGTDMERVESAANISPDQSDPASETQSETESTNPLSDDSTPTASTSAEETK

T3: Fragment J1–56 of GvpJ, split-GFP fusion (Halobacterium salinarum, UniProt P24374 1-56)
T3 construct: GvpJ, p-vac region of Hbt. salinarum PHH1, residues 1–56; source: Hfx. volcanii transformant, in cells
T3 sequence (looked up): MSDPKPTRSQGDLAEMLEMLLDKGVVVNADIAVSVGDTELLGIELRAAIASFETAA

T4: Fragment L1–134 of GvpL, split-GFP fusion (Halobacterium salinarum, UniProt Q9HI27 1-134)
T4 construct: GvpL, p-vac region of Hbt. salinarum PHH1, residues 1–134 (first of two domains); source: Hfx. volcanii transformant, in cells
T4 sequence (looked up): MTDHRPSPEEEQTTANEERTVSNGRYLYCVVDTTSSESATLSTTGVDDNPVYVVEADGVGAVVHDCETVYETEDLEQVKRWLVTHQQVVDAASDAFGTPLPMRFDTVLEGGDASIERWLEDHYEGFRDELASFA

T5: Fragment F1–110 of GvpF, split-GFP fusion (Halobacterium salinarum, UniProt Q9HI21 1-110)
T5 construct: GvpF, p-vac region of Hbt. salinarum PHH1, residues 1–110 (first of two domains); source: Hfx. volcanii transformant, in cells
T5 sequence (looked up): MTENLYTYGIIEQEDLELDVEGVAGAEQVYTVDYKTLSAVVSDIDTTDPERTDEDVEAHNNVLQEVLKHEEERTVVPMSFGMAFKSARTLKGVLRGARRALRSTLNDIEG

T6: GvpF, entire protein, split-GFP fusion (Halobacterium salinarum, UniProt Q9HI21 1-213)
T6 construct: GvpF, p-vac region of Hbt. salinarum PHH1, 23 kDa; also called the entire GvpF; source: Hfx. volcanii transformant, in cells
T6 sequence (looked up): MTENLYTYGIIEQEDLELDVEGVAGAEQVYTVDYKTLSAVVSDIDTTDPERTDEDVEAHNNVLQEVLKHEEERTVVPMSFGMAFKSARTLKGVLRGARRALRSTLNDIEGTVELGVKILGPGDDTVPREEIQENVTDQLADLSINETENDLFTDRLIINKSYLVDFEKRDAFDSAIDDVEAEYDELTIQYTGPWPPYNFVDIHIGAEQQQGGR

B1: GvpL, entire protein, split-GFP fusion of Figure 7 (natural protein, Halobacterium salinarum, UniProt Q9HI27 1-281, looked up)
chain: MTDHRPSPEEEQTTANEERTVSNGRYLYCVVDTTSSESATLSTTGVDDNPVYVVEADGVGAVVHDCETVYETEDLEQVKRWLVTHQQVVDAASDAFGTPLPMRFDTVLEGGDASIERWLEDHYEGFRDELASFAGVWEYRINLLWDSAPFEETIADRDDRLRELRQRQQQSGAGKKFLLEKQSDQRLQELKRERRTELADQLKEAITPVVNDLTEQDTNTPLQDEHSSIEKEQIVRFAVLADEDDETALGDRLDTIVEHEGVEIRFTGPWPPYTFAPDIGK
notes: GvpL, p-vac region of Hbt. salinarum PHH1, 32 kDa; also called the entire GvpL; source: Hfx. volcanii transformant, in cells

What was measured:
Assay in all cases: split reporter (BiFC, NanoBiT); split-GFP (mGFP2) in Hfx. volcanii transformants, entire Gvp proteins and fragments (Figure 7); arrangement of the GFP portions not stated; relative fluorescence (rf) of cells against untransformed WR340
Settings in all cases: partners not purified
[1] = target: T1, Fragment L133–281 of GvpL, split-GFP …
[2] = target: B1
[3] = target: T2, Fragment J47–114 of GvpJ, split-GFP …
[4] = target: T3, Fragment J1–56 of GvpJ, split-GFP fusion
[5] = target: T2, Fragment J47–114 of GvpJ, split-GFP …; remark: listed apart in the source
[6] = target: T3, Fragment J1–56 of GvpJ, split-GFP fusion; remark: listed apart in the source
[7] = target: T4, Fragment L1–134 of GvpL, split-GFP …
[8] = target: T5, Fragment F1–110 of GvpF, split-GFP …
[9] = target: T6, GvpF, entire protein, split-GFP fusion

Binder	relative fluorescence (rf) [1] [rf]	relative fluorescence (rf) [4] [rf]	relative fluorescence (rf) [5] [rf]	also measured
GvpK, split-GFP fusion (natural protein, GvpK, p-vac region of Hbt. salinarum PHH1; no truncation is mentioned; source: Hfx. volcanii transformant, in cells) not shown	6.1	–	–	relative fluorescence (rf) [2]: 7.4 rf; relative fluorescence (rf) [3]: < 5 rf
EEWDAAHRQQSEAFTTSPTADRRED (peptide, UniProt P24377 60-84, looked up, GvpM, p-vac region of Hbt. salinarum PHH1, C-terminal 25 aa; also called M25C; M(25C); source: Hfx. volcanii transformant, in cells) [Fragment M60–84 of GvpM, split-GFP fusion]	–	20	20	–
B1	–	20	11	relative fluorescence (rf) [6]: 6.7 rf
GvpG, split-GFP fusion (natural protein, Halobacterium salinarum, UniProt P24371 1-83, looked up, GvpG, p-vac region of Hbt. salinarum PHH1; no truncation is mentioned; source: Hfx. volcanii transformant, in cells) MFIIDDLFVSPFFSLLDILQTMALDEMYDTKSIRDDIKENQLLYEVGERSDEEYQQRKQALESQLEMAEQVQEQMRDRMEVKK	< 2.6	–	15	relative fluorescence (rf) [7]: < 2.6 rf; relative fluorescence (rf) [2]: 77.5 rf
GvpM, entire protein, split-GFP fusion of Figure 7 (natural protein, Halobacterium salinarum, UniProt P24377 1-84, looked up, GvpM, p-vac region of Hbt. salinarum PHH1; printed as 83 aa and as 84 aa; also called the entire GvpM; source: Hfx. volcanii transformant, in cells) MEPTKDETHAIVEFVDVLLRDGAVIQADVIVTVADIPLIGISLRAAIAGMTTMTEYGLFEEWDAAHRQQSEAFTTSPTADRRED	< 2.6	–	–	relative fluorescence (rf) [7]: < 2.6 rf; relative fluorescence (rf) [3]: < 5 rf
GvpJ, entire protein, split-GFP fusion of Figure 7 (natural protein, Halobacterium salinarum, UniProt P24374 1-114, looked up, also called the entire GvpJ; source: Hfx. volcanii transformant, in cells) MSDPKPTRSQGDLAEMLEMLLDKGVVVNADIAVSVGDTELLGIELRAAIASFETAAEYGLEFPTGTDMERVESAANISPDQSDPASETQSETESTNPLSDDSTPTASTSAEETK	< 2.6	–	–	relative fluorescence (rf) [7]: < 2.6 rf; relative fluorescence (rf) [3]: < 5 rf
VAASVDTFLHYAEEIAKIEQAELTAGAEAAPEA (domain or fragment, Halobacterium salinarum, UniProt P08958 44-76, looked up, GvpA, p-vac region of Hbt. salinarum PHH1, residues 44–76; construct of Völkner et al. 2020; source: Hfx. volcanii transformant, in cells) [Fragment A44–76 of GvpA, split-GFP fusion]	–	–	5	–
MAQPDSSGLAEVLDRVLDKGVV (peptide, UniProt P08958 1-22, looked up, GvpA, p-vac region of Hbt. salinarum PHH1, first 22 aa including α-helix 1; construct of Völkner et al. 2020; source: Hfx. volcanii transformant, in cells) [Fragment A1–22 of GvpA, split-GFP fusion]	–	10	5	relative fluorescence (rf) [8]: < 4 rf; relative fluorescence (rf) [9]: 41 rf
GvpH, split-GFP fusion (natural protein, Halobacterium salinarum, UniProt P24372 1-182, looked up, GvpH, p-vac region of Hbt. salinarum PHH1; no truncation is mentioned; source: Hfx. volcanii transformant, in cells) MVPDENDDASDDQSSQLSGLLDQLHTLVEVLADIEEEGGHRHESGRIDRGNARIDYDYDVSIGLGRADGSSYDEEPSSNRSRSEQRSGQQRTTEDSIHVETRGGTSGDELVVVADLPGVTDDDVDVALDTDEQALTLRVDDDVVERVVLDRPDVAITDMTLRNQVLEIRLARTSDTDGGEST	–	–	13	–
MEPTKDETHAIVEFVDVLLRDGAVI (peptide, UniProt P24377 1-25, looked up, GvpM, p-vac region of Hbt. salinarum PHH1, N-terminal 25 aa; also called M25N; M(25N); source: Hfx. volcanii transformant, in cells) [Fragment M1–25 of GvpM, split-GFP fusion of Figure 7]	–	20	20	–
GvpA, entire protein, split-GFP fusion (natural protein, Halobacterium salinarum, UniProt P08958 1-76, looked up, GvpA, p-vac region of Hbt. salinarum PHH1, 76 aa; also called the entire GvpA; source: Hfx. volcanii transformant, in cells) MAQPDSSGLAEVLDRVLDKGVVVDVWARVSLVGIEILTVEARVVAASVDTFLHYAEEIAKIEQAELTAGAEAAPEA	–	–	–	relative fluorescence (rf) [8]: < 4 rf; relative fluorescence (rf) [9]: 20 rf
